From patent US20220204583A1 (published 2022)
Where a chain is given by its changes, count along the chain named.

B1: VLR-Fc-46 (Fc fusion)
chain: ACPSQCSCSGTTVDCSGKSLASVPTGIPTTTRWLHLHRNQLTKLEPGVFDSLTQLTYLNLGGNQLTALPVGVFDKLTNLKELKLYSNQLQALSEGLFDRLGKLQHLDLSKNQLKSIPHGAFDRLSSLTHAYLFGNPWDCECRDIMYLRNWVADHTSIVMRWDGKAVNDPDSAKCAGTNTPVRAVTEASTSPSKCPGYVAT
B2: VLR-Fc-11 (Fc fusion)
chain: B1 chain with T12E, D14R, S16E, G17S, K18R, T25A, W33R
B3: VLR-Fc-30 (Fc fusion)
chain: B1 chain with R32Q, W33I, H35R, H37Y, L41I

Each binder was assayed against MBECs (cultured cells) (assay: equilibrium titration on cultured MBECs; apparent affinity).

Question: B1 was tested. Which Kd did it give?
Answer: 68.2 nM

Question: How did the Kd turn out when B2 was run?
Answer: 10.4 nM

Question: With B3 as the binder, how does the Kd read?
Answer: 5.4 nM
